This data set concerns the target OsHsfB4d (Oryza sativa (rice; cv. Zhonghua 11?)) (UniProt Q10KX8). Kind of data set: EMSA. As to conditions: room temperature 20 min, buffer. Background: Mobility shift assays separate free from complexed probe on a gel.

Sequence of OsHsfB4d (Oryza sativa (rice; cv. Zhonghua 11?)) (Q10KX8 whole entry): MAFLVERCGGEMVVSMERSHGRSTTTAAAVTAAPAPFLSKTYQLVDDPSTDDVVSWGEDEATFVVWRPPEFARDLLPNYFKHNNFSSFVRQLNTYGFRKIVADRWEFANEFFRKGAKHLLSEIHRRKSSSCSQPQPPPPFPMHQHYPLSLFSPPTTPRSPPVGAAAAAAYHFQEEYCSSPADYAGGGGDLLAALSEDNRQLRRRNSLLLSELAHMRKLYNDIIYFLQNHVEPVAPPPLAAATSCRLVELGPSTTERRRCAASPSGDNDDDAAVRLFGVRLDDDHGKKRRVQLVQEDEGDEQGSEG

On to “CGTCGGAATAGCTGCGAATTTGGAGGTGGAACGATCGGACTTCTCTGAGTTCTTACTCTGATGTTTGCTTGGTTTGCTTTGCGTTTTCTTCGTGGTTCTGCCGGTGAAGGGGAGCGCGGTTTTATAGAGGGCAGCGAGAGGGCATCGTGGAGCTTGGAATAAGCTTCTAGAAACTTCCAGTTTGCCCCCGCATGGGCTAGAACCTAGTACGAGATAGCTTGGGCTAGAAGTTTACACCACCGGTAGCGGGGTGGGCTGTAGCCCATAGCGTCCAG (double strand)”, for which the binding entry is “binds”.

Source of the values: PMC7253548.
